# Results: IntAct's records for PubMed 22266823
# B1: Fanconi anemia core complex-associated protein 20 (Homo sapiens), Q6NZ36-1 (parent)
# chain: MEAARRPRLGLSRRRPRPAGGPSGGRPWFLLGGDERERLWAELLRTVSPELILDHEVPSLPAFPGQEPRCGPEPTEVFTVGPKTFSWTPFPPDLWGPGRSYRLLHGAGGHLESPARSLPQRPAPDPCRAPRVEQQPSVEGAAALRSCPMCQKEFAPRLTQLDVDSHLAQCLAESTEDVTW
# partner: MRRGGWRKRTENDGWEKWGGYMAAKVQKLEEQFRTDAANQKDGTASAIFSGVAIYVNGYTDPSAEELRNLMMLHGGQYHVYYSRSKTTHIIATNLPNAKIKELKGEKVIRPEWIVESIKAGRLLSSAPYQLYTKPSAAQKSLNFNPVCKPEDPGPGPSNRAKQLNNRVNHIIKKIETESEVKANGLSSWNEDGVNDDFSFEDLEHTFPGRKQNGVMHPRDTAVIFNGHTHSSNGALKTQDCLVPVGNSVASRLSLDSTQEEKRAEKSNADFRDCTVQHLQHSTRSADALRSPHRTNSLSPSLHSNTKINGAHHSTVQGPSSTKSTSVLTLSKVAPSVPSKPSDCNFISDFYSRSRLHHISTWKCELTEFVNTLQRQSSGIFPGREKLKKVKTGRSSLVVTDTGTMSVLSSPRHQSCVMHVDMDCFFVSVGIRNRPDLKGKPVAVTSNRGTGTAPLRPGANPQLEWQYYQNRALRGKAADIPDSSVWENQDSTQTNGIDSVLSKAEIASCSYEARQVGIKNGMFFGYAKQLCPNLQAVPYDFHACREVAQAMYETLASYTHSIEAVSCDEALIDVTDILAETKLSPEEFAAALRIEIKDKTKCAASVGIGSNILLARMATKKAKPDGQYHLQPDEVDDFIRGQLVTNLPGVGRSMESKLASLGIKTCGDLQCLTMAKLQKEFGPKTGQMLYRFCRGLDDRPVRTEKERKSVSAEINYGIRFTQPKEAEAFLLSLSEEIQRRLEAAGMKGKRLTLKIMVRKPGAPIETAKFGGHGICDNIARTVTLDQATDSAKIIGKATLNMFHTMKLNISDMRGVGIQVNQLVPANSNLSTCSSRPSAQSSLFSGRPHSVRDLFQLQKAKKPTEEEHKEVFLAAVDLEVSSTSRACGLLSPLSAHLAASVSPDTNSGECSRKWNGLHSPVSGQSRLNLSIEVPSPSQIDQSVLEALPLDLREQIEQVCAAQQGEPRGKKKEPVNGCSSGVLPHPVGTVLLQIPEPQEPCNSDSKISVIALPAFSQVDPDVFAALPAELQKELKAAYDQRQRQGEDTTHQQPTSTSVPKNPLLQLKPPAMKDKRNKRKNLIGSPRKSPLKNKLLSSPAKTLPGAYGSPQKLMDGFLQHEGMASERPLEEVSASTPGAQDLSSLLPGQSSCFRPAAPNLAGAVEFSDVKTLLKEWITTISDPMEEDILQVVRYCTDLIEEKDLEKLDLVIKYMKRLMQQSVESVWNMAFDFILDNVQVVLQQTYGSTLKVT
# Variants of: B1
# Settings: with rev1_mouse Rev1, Q920Q2
row,effect of a mutation on the interaction,Variant
1,disrupting interaction strength,C147A;C150A
